# In patent US20220106406A1 (UNIVERSITY OF KENTUCKY RESEARCH FOUNDATION, published 2022):
# T1: 3×FLAG-PRL-2 (human, UniProt Q12974 1-164)
# T1 construct: Expressed in HEK293T cells, tested in cell lysate; Order of tag and PRL follows the printed name only; also called 3xFLAG-PRL-2; not shown: 3×FLAG tag from p3×FLAG-CMV-14
# T1 sequence (looked up): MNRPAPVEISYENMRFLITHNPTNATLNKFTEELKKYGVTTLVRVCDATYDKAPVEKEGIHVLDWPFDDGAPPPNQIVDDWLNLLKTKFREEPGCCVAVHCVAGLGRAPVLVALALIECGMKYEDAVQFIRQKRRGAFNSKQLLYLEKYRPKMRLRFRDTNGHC
# T2: 3×FLAG-PRL-1 (human, UniProt Q93096 1-170)
# T2 construct: Expressed in HEK293T cells, tested in cell lysate; Order of tag and PRL follows the printed name only; also called 3xFLAG-PRL-1; not shown: 3×FLAG tag from p3×FLAG-CMV-14
# T2 sequence (looked up): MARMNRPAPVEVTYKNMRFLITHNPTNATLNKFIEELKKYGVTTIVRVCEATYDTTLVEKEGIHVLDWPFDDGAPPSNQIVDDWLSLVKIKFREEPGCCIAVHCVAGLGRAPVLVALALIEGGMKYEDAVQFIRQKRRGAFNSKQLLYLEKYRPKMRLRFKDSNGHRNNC
# T3: GFP-PRL-2 (UniProt Q12974 1-164)
# T3 construct: Expressed in HCT116 cells, fixed and permeabilized for immunofluorescence; also called CMV:GFP-PRL-2
# T3 sequence (looked up): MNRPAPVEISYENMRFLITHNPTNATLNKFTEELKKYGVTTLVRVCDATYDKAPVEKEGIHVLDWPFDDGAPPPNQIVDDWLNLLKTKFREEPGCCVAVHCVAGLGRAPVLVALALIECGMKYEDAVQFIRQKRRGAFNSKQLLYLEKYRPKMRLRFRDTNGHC
# T4: GFP-PRL-1 (UniProt Q93096 1-170)
# T4 construct: Expressed in HCT116 cells, fixed and permeabilized for immunofluorescence; also called CMV:GFP-PRL-1
# T4 sequence (looked up): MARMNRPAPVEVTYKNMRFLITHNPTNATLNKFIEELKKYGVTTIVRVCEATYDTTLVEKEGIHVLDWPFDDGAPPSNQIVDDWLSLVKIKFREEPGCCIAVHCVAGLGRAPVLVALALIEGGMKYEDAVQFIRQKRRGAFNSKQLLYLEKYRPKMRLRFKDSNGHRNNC
# Key:
# 3×FLAG-PRL-2 = molecular target: T1, 3×FLAG-PRL-2; test: immunoprecipitation from HEK293T lysate with nanobody-coupled Dynabeads, anti-FLAG blot
# Procedure: (§1) HEK293T cells (˜20 million) were lysed for 30 minutes with intermittent vortexing in Pierce IP lysis buffer (Thermo 87788) supplemented with 1% protease inhibitor cocktail (IP buffer) at 500 μl per 10 million cells and spun at 12,000 rpm for 10 minutes at 4° C. to pellet cell debris. Protein concentration was quantified using the Quick Start Bradford 1× Dye Reagent (Biorad, 5000205). 150 μL of nanobody-coupled beads were washed in 1 mL of PBS for 5 minutes, precipitated, then equilibrated in 500 μL of IP buffer for 5 minutes. 2.5 mg of total extracted protein was added to the balanced nanobody-beads complex for incubation with rocking at 4° C. overnight. After washing the beads-protein complex in cold PBS four times, 50 μL 2× Laemmli Sample Buffer (Biorad, 161-0737) with 2-Mercaptoethanol (Fisher Scientific, 034461-100) was added to the beads, the mixture was boiled at 95° C. for 10 minutes, and the supernatant was collected for western blot analysis.
# (§2) PRL-3 substrates remain largely undefined, in part due to insufficient tools for cell-based studies. The current commercially available PRL-3 antibodies have not been extensively validated for specificity towards PRL-3 over other PRLs. To address this, the ability of the anti-PRL-3 nanobodies to identify PRL-3 protein in cell lysate was tested. Anti-PRL-3 nanobodies were coupled to superparamagnetic Dynabeads® M-270 Epoxy beads and used in immunoprecipitation of HEK293T cells expressing either 3×FLAG-PRL-1, -2, or -3. All nanobodies selectively pulled-down 3×FLAG-PRL-3 over PRL-1 and PRL-2, as assessed by anti-FLAG immunoblot (FIGS. 7A and 9A-I). Some nanobodies were more specific to PRL-3 than others; nanobodies 4, 16, 19, and 84 pulled down small amounts of 3×FLAG-PRL-1 and/or PRL-2 (FIG. 3A). Successful nanobody coupling to Dynabeads was confirmed by the presence of 6×-His-tag in all samples (FIG. 3B). […] In total, anti-PRL-3 nanobodies 10, 26, and 91 can be used to specifically immunoprecipitate PRL-3, with no binding to PRL-1 or PRL-2.
# 3×FLAG-PRL-1 = molecular target: T2, 3×FLAG-PRL-1; test: as above
# Procedure: as §1, §2
# GFP-PRL-2 = molecular target: T3, GFP-PRL-2; test: immunofluorescence on fixed, permeabilized transfected HCT116 cells
# Procedure: (§3) HCT116 colorectal cancer cells were transfected with A—CMV:GFP, CMV:GFP-PRL-1, CMV:GFP-PRL-2, or CMV:GFP-PRL-3 for 24 hours prior to cell fixation and permeabilization. Immunofluorescence assays were completed with 1:1000 1 mg/mL NB91 followed by 1:400 Alexa Fluor® 594-AffiniPure Goat Anti-Alpaca IgG, VHH domain and show nanobodies detect PRL-3 but not PRL-1 or PRL-2.
# (§4) Transfected cells were plated at 5,000 cells per well in 96-well black glass bottomed plates (Cellvis, P96-1.5H-N). All solution exchanges and imaging occurred in the 96-well plate. 24 hours post-transfection cells were fixed in 4% paraformaldehyde (VWR, AAJ61899-AK) for 15 minutes, rinsed in PBS, permeabilized for 10 minutes in 1% 100× Triton (Sigma, X100-100), and rinsed in PBS. Blocking solution of 2% BSA in PBS was applied for 1 hour to all wells. All nanobodies were diluted to 1 mg/ml in blocking solution, and further diluted 1:1000 and incubated with the cells for 1 hour at room temperature followed by five PBS washes. Detection was carried out using an anti-alpaca IgG VHH conjugated to Alexa Fluor-594 (Jackson ImmunoResearch, 128-585-232) diluted 1:400 in blocking solution, and counterstained with Hoechst, 1:1000 dilution (ThermoFisher, H3570). All wells were washed in PBS five times prior to imaging. Images were acquired with a Nikon MR confocal using the 40× water objective. […]
# GFP-PRL-1 = molecular target: T4, GFP-PRL-1; test: as above
# Procedure: as §3, §4
Binder,binding result (3×FLAG-PRL-2),binding result (3×FLAG-PRL-1),binding result (GFP-PRL-2),binding result (GFP-PRL-1)
"NB91 (VHH, Alpaca nanobody expressed from pMES4 in E. coli; also called nanobody 91; Nanobody 91) VHH: QVQLQESGGGLVQTGGSLRLSCAASQSTFNFDVMGWYRLAPGKQREFLTSITNGGNIYYADSVKGRFTIARDDSKTTMYLEMNSLKPEDTAVYTCYGQTHKPRVTTSWGQGTQVTVSS",no binding,no binding,no binding (tested: 1:1000 of 1 mg/mL),no binding (tested: 1:1000 of 1 mg/mL)
"NB10 (VHH, Alpaca nanobody, C-terminal 6xHis tag intact; also called nanobody 10) VHH: QVQLQESGGGLVQTGGSLRLSCAASQSTFNFNVMGWYRLAPGKQREFLPSLTNGGNIYYADSVKGRFTIARDDSKTTTYLEMNSLKPEDTAVYTCYGQTHKPRVTTSWGQGTQVTVSS",no binding,no binding,–,–
"NB26 (VHH, Alpaca nanobody, C-terminal 6xHis tag intact; also called nanobody 26; Nanobody 26) VHH: QVQLQESGGGLVQPGGSLKLSCVVTGLHYYTEGWFRQAPGKEREGVSCISSSDGRTDYIDSVKGRFTISEDNDNKTVYLQMNTLKPDDTGVYYCVAERGPRGSTWWETYDYWGQGTHVTVSS",no binding,no binding,–,–
